Legend:
[1] = biological target: T1, (GA)15: H-CHHHHHH(GA)15-OH; test: indirect ELISA, coated peptide
T1 construct: synthetic, not coupled to BSA; also called poly-GA DPR protein peptide
T1 peptide: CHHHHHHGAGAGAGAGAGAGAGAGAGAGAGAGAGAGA

[2] = biological target: T2, GP5: H-(GP)5HHHHHH-NH2; test: indirect ELISA, His-tagged peptide coated at 50 ug/ml, antibody titrated [also D00027 FIG. 7N]
T2 peptide: H-GPGPGPGPGPHHHHHH-NH2
Description: (§1) In brief, dipeptide repeat proteins were synthesized and purified by Schafer-N (Copenhagen, Denmark): GA₂₀: H-(GA)₂₀HHHHHH-NH₂; GA₁₀: H-(GA)₁₀HHHHHH-NH₂; GA₆: H-(GA)₆HHHHHH-NH₂; GA₅: H-(GA)₅HHHHHH-NH₂; GA₄: H-(GA)₄HHHHHH-NH₂; GA₃: H-(GA)₃HHHHHH-NH₂; GA₂: H-(GA)₂HHHHHH-NH₂; GP₂₀: H-(GP)₂₀HHHHHH-NH₂; GP₁₀: H-(GP)₁₀HHHHHH-NH₂; GP₆: H-(GP)₆HHHHHH-NH₂; GP₅: H-(GP)₅HHHHHH-NH₂; GP₄: H-(GP)₄HHHHHH-NH₂; GP₃: H-(GP)₃HHHHHH-NH₂; GP₂: H-(GP)₂HHHHHH-NH₂. GR₂₀: H-(GR)₂₀HHHHHH-NH₂; GR₁₀: H-(GR)₁₀HHHHHH-NH₂; GR₆: H-(GR)₆HHHHHH-NH₂; GR₅: H-(GR)₅HHHHHH-NH₂; GR₄: H-(GR)₄HHHHHH-NH₂; GR₃: H-(GR)₃HHHHHH-NH₂; GR₂: H-(GR)₂HHHHHH-NH₂; PA₂₀: H-(PA)₂₀HHHHHH-NH₂; PA₁₀: H-(PA)₁₀HHHHHH-NH₂; PA₆: H-(PA)₆HHHHHH-NH₂; PA₅: H-(PA)₅HHHHHH-NH₂; PA₄: H-(PA)₄HHHHHH-NH₂; PA₃: H-(PA)₃HHHHHH-NH₂; PA₂: H-(PA)₂HHHHHH-NH₂; PR₂₀: H-(PR)₂₀HHHHHH-NH₂; PR₁₀: H-(PR)₁₀HHHHHH-NH₂; PR₆: H-(PR)₆HHHHHH-NH₂; PR₅: H-(PR)₅HHHHHH-NH₂; PR₄: H-(PR)₄HHHHHH-NH₂; PR₃: H-(PR)₃HHHHHH-NH₂; PR₂: H-(PR)₂HHHHHH-NH₂. 96-well microplates (Corning Incorporated, Corning, USA) were coated with dipeptide repeat protein peptides at a concentration of 50 μg/ml in coating buffer (15 mM Na₂CO₃, 35 mM NaHCO₃, pH 9.42). Non-specific binding sites were blocked for 1 h at room temperature with PBS/0.1% Tween®-20 containing 2% BSA (Sigma-Aldrich, Buchs, Switzerland). Primary antibodies were diluted to the indicated concentrations and incubated 1 h at room temperature, followed by incubation with a donkey anti-human IgG Fcγ-specific antibody conjugated with HRP (Jackson ImmunoResearch Laboratories, Inc., West Grove, USA). Binding was determined by measurement of HRP activity in a standard colorimetric assay. EC₅₀ values were estimated by non-linear regression using GraphPad Prism software (San Diego, USA).

[3] = biological target: T3, GP4: H-(GP)4HHHHHH-NH2; test: as above
T3 peptide: H-GPGPGPGPHHHHHH-NH2
Description: as §1

[4] = biological target: T4, GP3: H-(GP)3HHHHHH-NH2; test: as above
T4 peptide: H-GPGPGPHHHHHH-NH2
Description: as §1

[5] = biological target: T5, GP2: H-(GP)2HHHHHH-NH2; test: as above
T5 peptide: H-GPGPHHHHHH-NH2
Description: as §1

[6] = biological target: T6, GR2: H-(GR)2HHHHHH-NH2; test: indirect ELISA, His-tagged peptide coated at 50 ug/ml, antibody titrated [also D00026 FIG. 7L]
T6 peptide: H-GRGRHHHHHH-NH2
Method: 96-well microplates (Corning Incorporated, Corning, USA) were coated with dipeptide repeat protein peptides at a concentration of 50 μg/ml in coating buffer (15 mM Na₂CO₃, 35 mM NaHCO₃, pH 9.42). Non-specific binding sites were blocked for 1 h at room temperature with PBS/0.1% Tween®-20 containing 2% BSA (Sigma-Aldrich, Buchs, Switzerland). Primary antibodies were diluted to the indicated concentrations and incubated 1 h at room temperature, followed by incubation with a donkey anti-human IgG Fcγ-specific antibody conjugated with HRP (Jackson ImmunoResearch Laboratories, Inc., West Grove, USA). Binding was determined by measurement of HRP activity in a standard colorimetric assay. EC₅₀ values were estimated by non-linear regression using GraphPad Prism software (San Diego, USA).
High affinity binding was detected for poly-GA DPRs harboring 10 or 20 (GA)-repeats, reflected in an EC₅₀ in the subnanomolar or low nanomolar range (FIGS. 7A, 7C-7I).

B1: NI-308.24E11 (antibody, V domains shown)
VH: QVQLQESGPGLVKPSETLSLTCTVSTTSLRSYFWSWIRQPPGKGLEWIGYVYYSGSTIYNPSLKNRVTISIDTSKNQFSLNLRSVTAADTAMYFCARGVPAETDARDFPPYYFDHWGQGTLVTVSS
VL: CDIQLTQSPSSLSASVGNRITFTCQASQDIRYYLNWYQQKPGKAPKLLIYDVSNLDTGVPPRFSGSGSGTNFTFTISSLQPEDIAVYYCQQYEGLPVTFGGGTKVEIK
notes: Recombinant complete human IgG1, kappa
B1: no binding [1].

B2: NI-308.46E9 (antibody, V domains shown)
VH: QVQLQESGPGLVKPSETLSLTCTVSGASISGSTYYWGWIRQPPGKGLEYIGRIYYSGSTYYNPSLKSRATISVDTSKNQLSLTLSSVTAADTAVYYCVRPFYAGSGNSPFDYWGQGTLVTVSS
VL: CEIVLTQSPATVSVSPGERATLSCRASQSVSTNLAWYQQKPGQPPRLLIYGASTRATGIPARFSGSGSGAEFTLTISSLQSEDFVVYYCQQYNNWPPAFGGGTKVEIK
notes: as for B1
B2: no binding (tested: about 4x10^5 pM (last point)) [2]; no binding (tested: about 4x10^5 pM (last point)) [3]; no binding (tested: about 4x10^5 pM (last point)) [4]. B2: no binding (tested: about 4x10^5 pM (last point)) [5].

B3: NI-308.6B11 (antibody, V domains shown)
VH: EVQLVQSGAEVKRPGASVKVSCKVSGYTLTELSMHWVRQAPGKGLEWMGGFDPEDGETVYAQKFQGRVTMTEDTSTDTAYMELSSLRSEDTALYHCATYGSSWHWNEGNEGSYYFDYWGQGTLVTVSS
VL: CDIQMTQSPSSLSASVGDRVTITCQASQDISIYLNWYQQKPGKAPKLLIYDASNLETGVPSRFSGSGSGTDFTFTISGLQPEDVARYYCQQYDDLPITFGQGTRLEIK
notes: as for B1
B3: no binding (tested: about 4x10^5 pM (last point)) [6].

Source: US20200010567A1 (NEURIMMUNE, published 2020)
